One series has as its target T1, Pus7 delta ID-I (Saccharomyces cerevisiae, UniProt Q08647 1-74+216-676, internal_change).
T1 sequence: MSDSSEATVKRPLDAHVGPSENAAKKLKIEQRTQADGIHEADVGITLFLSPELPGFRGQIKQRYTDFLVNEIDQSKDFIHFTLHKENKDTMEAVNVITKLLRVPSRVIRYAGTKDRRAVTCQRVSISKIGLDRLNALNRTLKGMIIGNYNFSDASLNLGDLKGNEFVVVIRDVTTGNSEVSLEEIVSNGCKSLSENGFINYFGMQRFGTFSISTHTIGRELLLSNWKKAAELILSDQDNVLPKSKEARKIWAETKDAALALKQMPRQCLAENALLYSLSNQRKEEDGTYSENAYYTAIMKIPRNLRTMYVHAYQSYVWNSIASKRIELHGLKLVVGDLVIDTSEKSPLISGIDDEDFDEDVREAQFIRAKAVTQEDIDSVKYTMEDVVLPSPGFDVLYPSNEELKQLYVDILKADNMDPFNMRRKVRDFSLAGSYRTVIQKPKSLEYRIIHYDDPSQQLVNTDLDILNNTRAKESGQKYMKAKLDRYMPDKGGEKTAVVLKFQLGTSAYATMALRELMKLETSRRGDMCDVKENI
Nature of the series: EMSA.

A further series addresses T2, Pus7 WT (Saccharomyces cerevisiae, UniProt Q08647 1-676).
T2 sequence: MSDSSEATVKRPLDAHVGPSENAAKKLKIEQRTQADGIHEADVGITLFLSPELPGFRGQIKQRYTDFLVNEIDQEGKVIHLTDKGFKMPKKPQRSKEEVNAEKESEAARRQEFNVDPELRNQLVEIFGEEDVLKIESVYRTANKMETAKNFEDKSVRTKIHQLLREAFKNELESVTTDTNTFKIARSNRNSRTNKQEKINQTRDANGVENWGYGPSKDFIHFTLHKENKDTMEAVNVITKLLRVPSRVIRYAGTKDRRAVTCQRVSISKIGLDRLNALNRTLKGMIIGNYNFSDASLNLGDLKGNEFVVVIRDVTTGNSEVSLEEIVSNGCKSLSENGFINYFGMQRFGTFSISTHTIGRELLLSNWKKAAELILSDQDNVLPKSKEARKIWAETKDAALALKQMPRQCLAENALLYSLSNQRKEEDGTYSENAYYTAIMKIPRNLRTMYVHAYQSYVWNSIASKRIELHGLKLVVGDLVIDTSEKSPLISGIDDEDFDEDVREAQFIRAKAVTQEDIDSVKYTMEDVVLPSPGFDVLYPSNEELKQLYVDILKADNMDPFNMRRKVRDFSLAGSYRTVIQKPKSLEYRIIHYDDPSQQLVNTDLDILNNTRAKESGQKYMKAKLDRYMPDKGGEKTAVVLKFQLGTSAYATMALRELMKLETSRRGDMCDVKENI
Description: EMSA.

B1: Psi-modified CDC8 (ssRNA)
RNA: GUCAAUCACGAUUGUAGACGUUACUAAUAAGGGCAUUCAGGAAGUUGAAGCGCUUAUUUGG
modifications: pseudouridine at the UGUAG target U (U15)
One may read the Kd as the free concentration of one partner at which half of the binding sites on the other are occupied at equilibrium, for simple one-to-one binding. The low end stands for a tighter complex, the high end for a looser complex. Regarding B1, in the series with Pus7 delta ID-I, the binding signal was 8 fold weaker than D256A/delta ID-I on unmodified CDC8. This molecule returned an equilibrium dissociation constant (Kd) in the series with Pus7 WT of 0.075 ± 0.015 µM.

The record behind these values is article PMC8794802.
